PMC4030946, “Enantiocomplementary Yarrowia lipolytica Oxidoreductases: Alcohol Dehydrogenase 2 and Short Chain Dehydrogenase/Reductase” (Biomolecules, 2013)

B1: YlADH2 (Yarrowia lipolytica CLIB122) (protein)
chain: MSAPVIPKTQKGVIFETSGGPLMYKDIPVPVPADDEILVNVKFSGVCHTDLHAWKGDWPLDTKLPLVGGHEGAGVVVAKGKNVDTFEIGDYAGIKWINKACYTCEFCQVAAEPNCPNATMSGYTHDGSFQQYATANAVQAAHIPKNCDLAEIAPILCAGITVYKALKTAAILAGQWVAVTGAGGGLGTLAVQYAKAMGYRVLAIDTGADKEKMCKDLGAEVFIDFAKTKDLVKDVQEATKGGPHAVINVSVSEFAVNQSIEYVRTLGTVVLVGLPAGAVCKSPIFQQVARSIQIKGSYVGNRADSQEAIEFFSRGLVKSPIIIIGLSELEKVYKLMEEGKIAGRYVLDTSK

Columns and labels:
YlSDR = target: T1, YlSDR (Yarrowia lipolytica, UniProt Q6CEE9); assay: chiral GC of product after acetylation; assay type: biochemical; settings: reduction to (R)-2-octanol; NADPH 11 mM; citrate 50 mM, pH 5.0, 28 °C; Tween 20
T1 construct: gene YALI0B16192g; full length, N-terminal His-tag (vector pK470), E. coli BL21 (DE3) Gold, purified
T1 sequence (Q6CEE9 1-278): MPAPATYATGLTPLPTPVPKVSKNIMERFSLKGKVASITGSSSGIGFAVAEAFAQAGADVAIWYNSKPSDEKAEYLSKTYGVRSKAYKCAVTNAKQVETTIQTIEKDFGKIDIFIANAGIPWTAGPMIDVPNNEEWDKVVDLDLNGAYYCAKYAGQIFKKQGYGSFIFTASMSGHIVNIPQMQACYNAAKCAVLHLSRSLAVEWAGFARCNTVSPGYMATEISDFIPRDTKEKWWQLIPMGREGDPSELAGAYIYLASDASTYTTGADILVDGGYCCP

purified protein [1] = substrate: CCCCCCC(C)=O; assay: purified protein; assay type: biochemical, Yarrowia lipolytica; settings: reduction, NADH co-substrate, potassium phosphate 50 mM, 40 mM KCl, pH 7.0, 28 °C, Tween 20
purified protein [2] = substrate: CCCCCC[C@H](C)O; assay: purified protein; assay type: biochemical, Yarrowia lipolytica; settings: oxidation, NAD+ co-substrate, potassium phosphate 50 mM, 40 mM KCl, pH 8.5, 28 °C, Tween 20
purified protein [3] = substrate: NC(=O)c1ccc[n+]([C@@H]2O[C@H](COP(=O)(O)OP(=O)(O)OC[C@H]3O[C@@H](n4cnc5c(N)ncnc54)[C@H](O)[C@@H]3O)[C@@H](O)[C@H]2O)c1; assay: purified protein; assay type: biochemical, Yarrowia lipolytica; settings: oxidation of 10 mM (S)-2-octanol, potassium phosphate 50 mM, 40 mM KCl, pH 8.5, 28 °C, varied: cofactor

Row | Molecule | chiral GC of product after acetylation (YlSDR) | Km (purified protein [1]) | kcat (purified protein [1]) | kcat/Km (purified protein [1]) | Km (purified protein [2]) | kcat (purified protein [2]) | kcat/Km (purified protein [2]) | Km (purified protein [3]) | kcat (purified protein [3]) | kcat/Km (purified protein [3])
1 | CCCCCCC(C)=O [2-octanone] | (R)-2-octanol was prepared under the following conditions: purified YlSDR in citrate buffer |  |  |  |  |  |  |  |  | 
2 | B1 |  | 5.38 ± 0.76 mM | 0.56 ± 0.04 s⁻¹ | 100 ± 160 M⁻¹ s⁻¹ | 1.42 ± 0.03 mM | 1.05 ± 0.52 s⁻¹ | 740 ± 500 M⁻¹ s⁻¹ | 17.8 ± 1.26 mM | 3.43 ± 0.05 s⁻¹ | 190 ± 70 M⁻¹ s⁻¹
